Measurements: patent publication US20110183329A1, “PROTEIN PHOSPHATASE-1 INHIBITOR-1 POLYMORPHISM AND METHODS OF USE” (priority 2008, published 2011)

What was measured:
adult rat cardiomyocytes = assay: Contractile parameter measurements in adenovirus-infected myocytes; type: cell-based; settings: for contractility response to isoproterenol (fractional shortening, contraction, relaxation): adenovirus-infected cardiomyocytes; for cellular contractility (fractional shortening, contracting velocity, relaxing velocity): basal conditions, overexpression by adenovirus, 24 h
Protocol: Adult rat ventricular myocytes were isolated and cultured. Hearts from adult male Sprague-Dawley rats (8 wk old) were perfused with modified Krebs-Henseleit buffer (KHB) (118 mM NaCl, 4.8 mM KCl, 25 mM HEPES, 1.25 mM K2HPO4, 1.25 mM MgSO4, 11 mM glucose, 5 mM taurine, and 10 mM butanedione monoxime; pH 7.4) for 5 min. Subsequently, hearts were perfused with an enzyme solution [KHB containing 0.7 mg/ml collagenase type II (263 U/mg), 0.2 mg/ml hyaluronidase, 0.1% BSA, and 25 μM Ca]. Ten and 15 min later, 25 and 50 μM Ca, respectively, were added to the perfusion buffer, so that the Ca concentration was raised to 100 μM, and perfusion was continued for another 5 min. Finally, left ventricular tissue was excised, minced, pipette dissociated, and filtered through a […] screen. Cells were harvested and resuspended in KM including 1 mM Ca and 1% BSA. After a brief centrifugation, the cells were resuspended in KHB including 1.8 mM Ca and 1% BSA, centrifuged briefly again, and resuspended in Dulbecco's modified Eagle's medium containing 2 mg/ml BSA, 2 mM L-camitine, 5 mM creatine, 5 mM taurine, 1.8 mM Ca, 100 IU/ml penicillin, and 100 μg/ml streptomycin. Cells were then counted and plated on laminin-coated glass coverslips or dishes.
(§1) Recombinant adenovirus carrying empty vector, wild-type (WT) G147 inhibitor-1, or D147 inhibitor-1 was generated by using the Adeno-X expression system kit (Clontech, Mountain View, Calif.). All of the adenoviruses also expressed GFP as an indicator of transfection efficiency. Two hours after isolation and culture, myocytes seeded on coverslips or dishes were infected with adenovirus in diluted media, at a multiplicity of infection of 500, for 2 h before the addition of a suitable volume of culture media. Twenty-four hours later, the myocytes were washed in KHB including 1 mM Ca and harvested for quantitative immunoblotting or use in the experiments outlined below.
Myocytes that adhered to the coverslips were bathed in temperature (37° C.)—equilibrated KHB containing 1 mM Ca for 20 min. The myocyte suspension was then placed in a Plexiglas chamber, which was positioned on the stage of an inverted epifluorescence microscope (Diaphot 200; Nikon, Tokyo, Japan). Myocyte contraction was field-stimulated by a Grass S5 stimulator (0.5 Hz, square. waves; Grass Technologies, An Astro-Med, Inc., West Warwick, R.I., USA), and contractions were videotaped and digitized on a computer. A video edge motion detector (Crescent Electronics, Windsor, ON, Canada) was used to measure myocyte length and cell shortening, from which the percent fractional shortening (% FS) and maximal rates of contraction and relaxation (±dL/dt) were calculated. To investigate the response of adult rat cardiomyocytes to isoproterenol, a maximal concentration of isoproterenol (100 nM) was added to the KHB (including 1 mM Ca) in the Plexiglas chamber, and the above-mentioned measurements were repeated. All data were analyzed using software from Felix 1.1 software (Photon Technology International, Birmingham, N.J., USA) and IonWizard (IonOptix Corp., Milton, Mass., USA).

PLN = assay: Western blotting of PLN phosphorylation in infected cardiomyocytes; type: cell-based, rat
troponin I = assay: Western blotting of troponin I phosphorylation in infected cardiomyocytes; type: cell-based; settings: adult rat cardiomyocytes
Protocol: as §1
(§2) Alterations in the phosphorylation and/or total level of proteins were analyzed from whole heart homogenates, with the exception of MyBP-C, which was analyzed from a myofibril protein preparation, using Western blotting. 2-70 μg of protein were separated on polyacrylamide gels (6-15%) and transferred to nitrocellulose membranes. The membranes were incubated with primary antibodies, which were visualized by peroxidase-conjugated secondary antibodies (Amersham Biosciences) and enhanced chemiluminescence (Supersignal West Pico Chemiluminescent, Pierce). The bands were then quantified with densitometry, using ImageQuant 5.2 (GE Healthcare, Little Chalfont, UK). […]

RyR = assay: Western blotting of RyR phosphorylation in infected cardiomyocytes; type: cell-based; settings: adult rat cardiomyocytes
Protocol: as §1, §2

[1] = test system: major regulatory proteins related to cardiac calcium homeostasis; assay: Quantitative immunoblotting of calcium homeostasis regulatory proteins after adenoviral gene transfer; type: cell-based, rat; settings: 24 h post-transfection
From the text: FIG. 2. Isolated adult rat cardiomyocytes were infected with adenoviruses expressing GFP as control (empty), G147 inhibitor-1 or D147 inhibitor-1. (A) Images of infected cardiomyocytes and GFP expression. (B) Representative western blots display expression levels of inhibitor-1, SERCA 2a, PLN, CSQ, and L-type Ca-channel (LTCC).
as §1

| Molecule | effect of isoproterenol on contractility of control-virus cardiomyocytes (adult rat cardiomyocytes; 100 nM isoproterenol, control virus) | effect of isoproterenol on phosphorylation of PLN in control cells (PLN; control cells) | effect of isoproterenol treatment on troponin I phosphorylation (troponin I) | effect of isoproterenol treatment on RyR phosphorylation (RyR) | contractility response to isoproterenol (fractional shortening, contraction, relaxation) (adult rat cardiomyocytes; 100 nM isoproterenol) | cellular contractility (fractional shortening, contracting velocity, relaxing velocity) (adult rat cardiomyocytes) | level of phosphorylated PLN on serine 16 depressed (PLN; in the presence of isoproterenol) | phosphorylation of PLN (PLN; in the presence of isoproterenol, versus control cells) | levels of the major regulatory proteins related to cardiac calcium homeostasis [1] | contractility response at lower isoproterenol dose (adult rat cardiomyocytes; 10 nM isoproterenol) | contractile parameters depressed compared with WT inhibitor-1-stimulated cells (adult rat cardiomyocytes; 100 nM isoproterenol) |
| --- | --- | --- | --- | --- | --- | --- | --- | --- | --- | --- | --- |
| CC(C)NCC(O)c1ccc(O)c(O)c1 (centres unmarked) [isoproterenol, reference compound] | enhanced contractility | increased | increased | increased |  |  |  |  |  |  |  |
| WT inhibitor-1: wild-type human protein phosphatase-1 inhibitor-1 (SEQ ID NO:13) overexpressed by recombinant adenovirus (protein, listed as Homo sapiens) MEQDNSPRKIQFTVPLLEPHLDPEAAEQIRRRRPTPATLVLTSDQSSPEIDEDRIPNPHLKSTLAMSPRQRKKMTRITPTMKELQMMVEHHLGQQQQGEEPEGAAESTGTQESRPPGIPDTEVESRLGTSGTAKKTAECIPKTHERGSKEPSTKEPSTHIPPLDSKGANSV |  |  |  |  | enhanced contractility | did not alter | ~50% | similarly increased | did not alter |  |  |
| D147 inhibitor-1: human inhibitor-1 with aspartic acid for glycine at position 147 (SEQ ID NO:14), overexpressed by recombinant adenovirus (protein, listed as Homo sapiens) MEQDNSPRKIQFTVPLLEPHLDPEAAEQIRRRRPTPATLVLTSDQSSPEIDEDRIPNPHLKSTLAMSPRQRKKMTRITPTMKELQMMVEHHLGQQQQGEEPEGAAESTGTQESRPPGIPDTEVESRLGTSGTAKKTAECIPKTHERDSKEPSTKEPSTHIPPLDSKGANSV |  |  |  |  | significantly blunted | did not alter |  |  | did not alter | differences similar to those observed in 100 nM | 24-28% |
